Results on 1 substance are retold here after patent publication US20030022260A1.

The test addresses LexA-DP-1 (pLEX(HIS).DP-1): complete bacterial LexA protein fused to DP-1 from residue 59 to 410 (bacterial; murine) (UniProt Q08639).

As to “GAD-E2F-5 (pGAD.E2F-5): entire murine E2F-5 as a hybrid with the activation domain of the yeast GAL4 protein (768-881) (from UniProt P04386)”, the transcriptional activity of the E2F site reporter p4x WT CYC1 in yeast is more than 6 fold.
